# Test results published in patent US12391751B2, “Antibody against advanced glycation end products and use thereof” (Bloom Technology Corporation, priority 2018, dated 2025).
# B1: PB-1: mouse monoclonal antibody raised against A-peak-BSA; heavy-chain variable region SEQ ID NO 18, light-chain variable region SEQ ID NO 22 (antibody, listed as Mus musculus, V domains shown)
# VH: EVRLQQSGPELVKPGTSVKISCKASGYSFTGYYMHWVKQSPVKSLEWIGRIIPYNGATSYNQNFKDKASLTVDKSSRTAYMDLHSLTSEDSAVYYCARSRYYGRAPYYFDYWGQGTTLTVSS
# VL: DVVVTQTPLSLPVSLGDQASISCRSSQSIVHSNGNTYLEWYLQKPGQSPKLLIYKVSNRFSGVPDRISGSGSGTDFTLKISRVEAGDLGVYSCFQGSHVPFTFGSGTKLEIK
# B2: SJ-5: mouse monoclonal antibody raised against GAL13-MSA; heavy-chain variable region SEQ ID NO 4, light-chain variable region SEQ ID NO 8 (antibody, listed as Mus musculus, V domains shown)
# VH: EVMLVESGGRLVKPGGSLKLSCAASGFTFSSYGMSWVRQTPEKRLEWVATISGGGSYTYYPDSVKGRFTISRDNVKNNLYLQMSSLRSEDTALYYCARRGAYGDYGWFAYWGQGTLVTVSA
# VL: DIVLTQSPATLSVTPGDSVSLSCRASQSINNNLHWYQQKSHESPRLLIKCASQSISGIPSRFSGSGSGTDFTLSINSVETEDFGMYFCQQSNSWPLTFGAGTKLELK
# How the values were obtained:
# Type in all cases: binding
# CML-AGEs-BSA = CML-AGEs-BSA (Bos taurus, UniProt P02769); test: Specificity of PB-1 by competitive ELISA (Example 30); conditions: A-peak-BSA or Glycer-AGEs-BSA immobilized, competitor 10 μg/mL, PB-1 0.05 μg/mL
# Sequence of CML-AGEs-BSA (P02769 25-607): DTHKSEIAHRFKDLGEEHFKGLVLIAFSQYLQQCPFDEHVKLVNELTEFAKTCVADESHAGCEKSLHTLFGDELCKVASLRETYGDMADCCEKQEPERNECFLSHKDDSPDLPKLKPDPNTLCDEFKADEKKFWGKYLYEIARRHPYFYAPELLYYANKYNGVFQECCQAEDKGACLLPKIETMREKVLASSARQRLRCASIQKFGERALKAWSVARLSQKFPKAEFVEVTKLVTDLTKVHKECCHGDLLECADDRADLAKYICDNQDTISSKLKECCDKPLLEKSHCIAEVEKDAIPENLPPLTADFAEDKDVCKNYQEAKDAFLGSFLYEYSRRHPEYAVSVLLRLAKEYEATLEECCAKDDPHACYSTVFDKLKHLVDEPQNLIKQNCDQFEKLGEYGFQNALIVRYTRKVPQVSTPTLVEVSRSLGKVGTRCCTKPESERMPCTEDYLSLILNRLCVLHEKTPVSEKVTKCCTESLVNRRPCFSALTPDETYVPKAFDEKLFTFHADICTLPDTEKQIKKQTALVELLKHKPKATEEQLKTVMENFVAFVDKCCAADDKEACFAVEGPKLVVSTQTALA
# Method: A-peak-BSA or Glycer-AGEs-BSA prepared into a concentration of 1 μg/mL with a coating solution (Example 13) was added at 100 μL/well to a 96-well microtiter plate (Costar) and immobilized overnight at 4° C.
# The plate was washed three times with PBS containing 0.05% (v/v) Tween 20 (PBS-T) and then blocked with PBS-T containing 0.5% (w/v) gelatin for 1 hour.
# Bovine serum albumin (BSA), BSA containing AGEs derived from glucose (Glu-AGEs-BSA), BSA containing AGEs derived from fructose (Fru-AGEs-BSA), BSA containing AGEs derived from glycolaldehyde (Glycol-AGEs-BSA), BSA containing AGEs derived from glyceraldehyde (Glycer-AGEs-BSA), BSA containing NE-carboxyethyllysine (CEL-AGEs-BSA), BSA containing NE-carboxymethyllysine (CML-AGEs-BSA), BSA containing AGEs derived from glyoxal (GO-AGEs-BSA), BSA containing AGEs derived from methylglyoxal (MGO-AGEs-BSA), and A-peak-BSA diluted into 10 μg/mL with PBS-T containing 0.1% (w/v) gelatin were each added at 50 μL/well to the antigen-immobilized plate, and the PB-1 antibody diluted into 0.05 μg/mL with PBS-T containing 0.1% (w/v) gelatin was further added at 50 μL/well, stirred with a plate mixer, and then left standing at room temperature for 1 hour.
# (§1) After washing, peroxidase-labeled anti-mouse IgG (H+L) polyclonal antibody, F(ab′)2 fragment (Kirkegaard & Perry Laboratories, Inc.) diluted into 0.05 μg/mL with PBS-T containing 0.1% (w/v) gelatin was added at 100 μL/well and left standing at room temperature for 1 hour.
# After washing, ELISA POD substrate TMB kit (Nacalai Tesque, Inc.) was added at 100 μL/well and left standing at room temperature in the dark. Ten minutes later, color development was terminated by the addition of 2 N sulfuric acid (50 μL/well). Absorbance was measured at a dominant wavelength of 450 nm and a sub-wavelength of 650 nm with a microplate reader (Cytation 5, BioTek Instrument Inc.), and the absorbance at the sub-wavelength was subtracted from the absorbance at the dominant wavelength.
# The ordinate of the graph depicts change in absorbance relative to that of control BSA defined as 1. When A-peak-BSA and Glycer-AGEs-BSA were immobilized, the novel monoclonal antibody PB-1 was also positive to Glycol-AGEs-BSA, Glycer-AGEs-BSA, and A-peak-BSA and negative to Glu-AGEs-BSA, Fru-AGEs-BSA, CEL-AGEs-BSA, CML-AGEs-BSA, GO-AGEs-BSA, and MGO-AGEs-BSA in terms of specificity.
# [1] = Reactivity of PB-1 with known AGEs by competitive ELISA (Example 31); conditions: immobilized A-peak-BSA
# Method: Competitive ELISA was conducted using the reagents described in Example 13. A solution of A-peak-BSA prepared into 1 μg/mL in a coating solution was added at 100 μL/well to a 96-well microtiter plate (Costar) and incubated overnight at 4° C.
# (§2) Each well after the immobilization treatment was washed three times with a washing solution (300 μL), and a blocking solution (200 μL) was added thereto and left at room temperature for 1 hour.
# GAL691 (prepared in Example 16), GLAP (prepared in Example 12), Lys-hydroxy-triosidine (prepared in Example 17), GA-pyridine (prepared in Example 28), GOLD (prepared in Example 29), and Z-Lys were each dissolved in a phosphate buffer solution (0.2 M, pH 7.4) to prepare a 100 mM solution. Then, a 10 mM solution was prepared by dilution 10-fold with a diluting solution containing BSA (1 mg/mL, FUJIFILM Wako Pure Chemical Corp.). Sample solutions of 4-fold dilution series of 0.04, 0.16, 0.63, and 2.5 mM were further prepared with a diluting solution containing a 10% (v/v) phosphate buffer solution and 1 mg/mL BSA. Ten-fold dilutions of a phosphate buffer solution with a diluting solution containing 1 mg/mL BSA were prepared as blank solutions containing no sample in the same way as above. A 0.1 μg/mL solution of the PB-1 antibody was prepared with a diluting solution containing 1 mg/mL BSA.
# Each well treated with the blocking solution was washed three times with a washing solution (300 μL), and the sample solutions of 4-fold dilution series (50 μL each) and the PB-1 antibody dilution solution (50 μL) were added thereto, stirred with a plate mixer for 2 minutes, and then incubated at room temperature for 1 hour.
# as §1, with “the competitive reaction, each well was washed three times with a washing solution (300 μL), and” for “washing,”, “a diluting solution” for “PBS-T”, “1 mg/mL BSA” for “0.1% (w/v) gelatin”
# After washing three times with a washing solution (300 μL), a substrate solution (ELISA POD substrate TMB kit (Popular), Nacalai Tesque, Inc.) was added at 100 μL/well and incubated at room temperature for 10 minutes under light shielding. Then, color development was terminated by the addition of 2 N sulfuric acid (50 μL).
# Absorbance was measured at a dominant wavelength of 450 nm and a sub-wavelength of 650 nm with a microplate reader (Cytation 5, BioTek Instrument Inc.), and the absorbance at the sub-wavelength was subtracted from the absorbance at the dominant wavelength. Change in the absorbance of GAL691, GLAP, Lys-hydroxy-triosidine, GA-pyridine, GOLD, and Z-Lys was indicated as relative values to the absorbance of the blank solution.
# [2] = Reactivity of SJ-5 with GLAP by competitive ELISA (Example 13); conditions: immobilized Glycer-AGEs-BSA
# Method: A solution of BSA containing AGEs derived from glyceraldehyde (stock solution: 10 mg/mL PBS solution) prepared into 1 μg/mL in a coating solution was added at 100 μL/well to a 96-well microtiter plate (COSTAR) and incubated overnight at 4° C.
# as §2
# GAL13 (prepared in Example 2), GLAP (prepared in Example 12), and Z-Lys-OH (Tokyo Chemical Industry Co., Ltd.) were each dissolved in a phosphate buffer solution (0.2 M, pH 7.4) to prepare a 20 mg/mL solution. Sample solutions of 2-fold dilution series from 0.0063 to 2 mg/mL (6 points) were further prepared by dilution with a diluting solution. A POD-labeled novel monoclonal antibody (SJ-5) solution was diluted 16,000-fold with a diluting solution containing BSA (1 mg/mL, FUJIFILM Wako Pure Chemical Corp.) to prepare a POD-labeled SJ-5 antibody dilution solution. […]
# Absorbance was measured at a dominant wavelength of 450 nm and a sub-wavelength of 650 nm with a microplate reader (Cytation 5, BioTek Instrument Inc.), and the absorbance at the sub-wavelength was subtracted from the absorbance at the dominant wavelength.
Molecule,specificity: reactivity with CML-AGEs-BSA (CML-AGEs-BSA),recognition of GA-pyridine [1],recognition of GLAP [1],recognition of GOLD [1],recognition of Lys-hydroxy-triosidine [1],recognition of GLAP [2]
B1,negative,does not recognize,does not recognize,does not recognize,does not recognize,
B2,,,,,,does not recognize
